Source: publication PMC12624140, “A conserved chronobiological complex times C. elegans development” (The EMBO Journal, 2025)
Blank lines part the entries; values can stand above or below the binder they belong to.

What was measured:
[1] = target: T1, human CK1δ kinase domain (CK1δ ΔC, residues 1–317) (human, UniProt P48730 1-317); experiment: pull-down; magnetic streptavidin beads hold biotinylated LIN-42 CK1BD + Tail WT or mutants (5 µM), with and without CK1δ ΔC (5 µM); details: both partners purified
T1 construct: N-terminal vector artifact left after TEV cleavage; human casein kinase 1 delta, catalytic domain, residues 1-317; also called CK1δ∆C; source: E. coli Rosetta (DE3), purified (Ni-NTA, TEV cleavage, GST column, SEC); not shown: His-GST, N-terminal, cleaved
T1 sequence: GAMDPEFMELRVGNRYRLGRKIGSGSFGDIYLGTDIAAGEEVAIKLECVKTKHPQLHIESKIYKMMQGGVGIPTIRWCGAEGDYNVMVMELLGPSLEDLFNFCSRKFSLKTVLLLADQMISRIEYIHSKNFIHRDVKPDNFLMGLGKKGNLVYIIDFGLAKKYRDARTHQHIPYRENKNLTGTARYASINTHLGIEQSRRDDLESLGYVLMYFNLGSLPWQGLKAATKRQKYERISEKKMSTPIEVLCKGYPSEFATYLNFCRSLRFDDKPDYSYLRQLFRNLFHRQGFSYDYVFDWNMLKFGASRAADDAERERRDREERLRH

[2] = target: T2, biotinylated human CK1δ kinase domain (CK1δ ΔC, residues 1–317) (human, UniProt P48730 1-317, biotin on the N-terminus (Sortase A reaction of biotin-LPETGG with the N-terminal G of GAMDPEF)); experiment: BLI; biotinylated CK1δ ΔC immobilised on streptavidin biosensors, LIN-42 fragments titrated; SEC buffer (50 mM Tris pH 7.5, 200 mM NaCl, 1 mM EDTA, 5% glycerol, 1 mM TCEP, 0.05% Tween-20) with 7.5 mM BSA as printed; Octet-RED96e; kinetic analysis, 2:1 heterogeneous ligand binding model, global fit; details: both partners purified
T2 construct: N-terminal vector artifact left after TEV cleavage; its first G is joined to the sortase peptide; human casein kinase 1 delta, catalytic domain, residues 1-317; After the sortase reaction the N-terminus should read biotin-LPET-GAMDPEF-; also called biotinylated CK1; not shown: His-GST, N-terminal, cleaved; biotin-LPETGG sortase peptide, N-terminal, kept
T2 sequence: T1 sequence

B2: LIN-42 CK1BD-∆A + Tail (residues 434–598) (domain or fragment, C. elegans)
chain: GAMDPEFDEKKYPPQTPLTREALTLHTKRFEDEYKDTWCRRLKRLSDDVPSSPPAKRTTPIHWTSSSQNHYRTMAPAPPPPPGKNYQITYTPLDDLTDQKSTNTKSDVENVAYPISGSKFSTPMRLSIDGLLPRGATSTGGASPTSGTNSPPVFPKTSSSSSLLMLRDSQN
notes: N-terminal vector artifact left after TEV cleavage; LIN-42, C. elegans, residues 434-598: CK1BD + Tail without the SYQ/CK1BD-A motif; source: E. coli Rosetta (DE3), purified (Ni-NTA, TEV cleavage, second Ni-NTA, SEC); not shown: His-NusA, N-terminal, cleaved
- Kd [2]: ~3 µM

B3: LIN-42 CK1BD (residues 402–475) (domain or fragment, C. elegans)
chain: GAMDPEFLSYTQINCLENVHRLLKSQSRPESPAKQDEPFDEKKYPPQTPLTREALTLHTKRFEDEYKDTWCRRLKRLSDDV
notes: N-terminal vector artifact left after TEV cleavage; LIN-42, C. elegans, residues 402-475 (SYQ/CK1BD-A and LT/CK1BD-B); numbers fit the longest isoform of 598 amino acids; also called truncated fragment of LIN-42 lacking the C-terminal tail; source: E. coli Rosetta (DE3), purified (Ni-NTA, TEV cleavage, second Ni-NTA, SEC); not shown: His-NusA, N-terminal, cleaved
- Kd [2]: 0.303 µM

Continued, values first:

- binding result [1]: binds
B1: biotinylated LIN-42 CK1BD-∆A + Tail (residues 434–598) (domain or fragment, C. elegans)
chain: B2 chain
modifications: biotin on the N-terminus (Sortase A reaction of biotin-LPETGG with the N-terminal G of GAMDPEF)
notes: N-terminal vector artifact left after TEV cleavage; its first G is joined to the sortase peptide; LIN-42, C. elegans, residues 434-598: CK1BD + Tail without the SYQ/CK1BD-A motif; also called biotinylated CK1BD + Tail mutant, SYQ/CK1BD-A deleted; not shown: His-NusA, N-terminal, cleaved; biotin-LPETGG sortase peptide, N-terminal, kept

- binding result [1]: binds
B4: biotinylated LIN-42 CK1BD + Tail (residues 402–598), wild type (domain or fragment, C. elegans)
chain: GAMDPEFLSYTQINCLENVHRLLKSQSRPESPAKQDEPFDEKKYPPQTPLTREALTLHTKRFEDEYKDTWCRRLKRLSDDVPSSPPAKRTTPIHWTSSSQNHYRTMAPAPPPPPGKNYQITYTPLDDLTDQKSTNTKSDVENVAYPISGSKFSTPMRLSIDGLLPRGATSTGGASPTSGTNSPPVFPKTSSSSSLLMLRDSQN
modifications: biotin on the N-terminus (Sortase A reaction of biotin-LPETGG with the N-terminal G of GAMDPEF)
notes: N-terminal vector artifact left after TEV cleavage; its first G is joined to the sortase peptide; LIN-42, C. elegans, residues 402-598 (CK1BD and C-terminal tail); After the sortase reaction the N-terminus should read biotin-LPET-GAMDPEF-; also called biotinylated LIN-42 CK1BD + Tail WT; wild-type LIN-42 protein; not shown: His-NusA, N-terminal, cleaved; biotin-LPETGG sortase peptide, N-terminal, …

- Kd [2]: 0.309 µM
B5: LIN-42 CK1BD + Tail (residues 402–598) (domain or fragment, C. elegans)
chain: B4 chain
notes: N-terminal vector artifact left after TEV cleavage; LIN-42, C. elegans, residues 402-598 (CK1BD and C-terminal tail); numbers fit the longest isoform of 598 amino acids; also called wild-type LIN-42 CK1BD + Tail; source: E. coli Rosetta (DE3), purified (Ni-NTA, TEV cleavage, second Ni-NTA, SEC); not shown: His-NusA, N-terminal, cleaved
